Source: US9605283B2, “Microorganism modified for the production of 1,3-propanediol” (INSTITUT NATIONAL DES SCIENCES APPLIQUÉES, priority 2012, dated 2017)

Assays:
[1] = substrate: O=C(O)C[C@H](O)C(=O)O; assay: purified protein, by the assay type; conditions: other: 37° C., pH 8, NAD
[2] = substrate: O=C(O)C[C@H](O)C(=O)O; assay: cells, lysate or membranes named; conditions: other: 37° C., pH 8, NAD
[3] = substrate: O=C(O)[C@@H](O)CCO; assay: cells, lysate or membranes named; format: biochemical, Escherichia coli; conditions: other: 37° C., pH 8, 10 mM NAD
Description: Activity of the cytosolic DHB dehydrogenases (Ec-Mdh, Bs-Mdh, Ll-LdhA) was assayed by following the DHB-dependent reduction of NAD^+.
The reaction mixture contained 60 mM Hepes (pH 8), 50 mM potassium chloride, 5 mM MgCl2, 10 mM NAD, (optionally, 5 mM fructose-1,6-bisphosphate (F16bP)) (all products from Sigma), and appropriate amounts of purified enzyme or cell extract. Reactions were started by adding 50 mM (L)-2,4-dihydroxybutyrate (Rhodia).
All enzymatic assays were carried out at 37° C. in 96-well flat bottomed microtiter plates in a final volume of 250 μL.

[4] = substrate: C[C@H](O)C(=O)O; assay: purified protein, by the assay type; conditions: other: 37° C., pH 8, NAD, optionally 5 mM fructose-1,6-bisphosphate
[5] = substrate: O=C(O)C[C@H](O)C(=O)O; assay: purified protein, by the assay type; format: biochemical, Bacillus subtilis strain 168; conditions: other: 37° C., pH 8, NAD
Excerpt: (§1) Ligation products were transformed into E. coli DH5α cells.

[6] = substrate: O=C(O)C[C@H](O)C(=O)O; assay: cells, lysate or membranes named; format: biochemical, Bacillus subtilis; conditions: other: 37° C., pH 8, NAD
Description: (§2) Site-directed mutagenesis of the E. coli mdh and the B. subtilis mdh genes were carried out using the oligonucleotide pairs listed in Table 3 and the pET28-Ec-mdh and the pET28-Bs-mdh plasmids as the templates. Point mutations to change the amino acid sequence were introduced by PCR (Phusion 1U, HF buffer 20% (v/v), dNTPs 0.2 mM, direct and reverse primers 0.04 μM each, template plasmid 50 ng, water) using the oligonucleotide pairs listed in Table 3. Mutated genes contained a new restriction site listed in Table 3 (introduced using silent mutations) in addition to the functional mutation to facilitate identification of mutated clones. The PCR products were digested by DpnI at 37° C. for 1 h to remove template DNA, and transformed into competent E. coli DH5-alpha cells (NEB). The mutated plasmids were identified by restriction site analysis and verified to carry the desired mutations by DNA sequencing.
(§3) Mutant enzymes were expressed, purified and tested for DHB dehydrogenase activity as described in Example 1.

[7] = substrate: O=C(O)[C@@H](O)CCO; assay: cells, lysate or membranes named; format: biochemical, Bacillus subtilis; conditions: other: 37° C., pH 8, 10 mM NAD
Description: as §2, §3

[8] = substrate: C[C@H](O)C(=O)O; assay: purified protein, by the assay type; format: biochemical, Escherichia coli MG1655; conditions: other: 37° C., pH 7, DCIP reduction
Description: as §1
(§4) Activity of the membrane-associated DHB dehydrogenase (Ec-LldD) was assayed by following the DHB-dependent reduction of 2,6-dichloroindophenol (DCIP). (L)-2,4-dihydroxybutyrate+DCIPox→2-oxo-4-hydroxybutyrate+DCIPred Reaction scheme 2:
(§5) Reactions were started by adding 20 mM (L)-2,4-dihydroxybutyrate (Rhodia).

[9] = substrate: O=C(O)[C@@H](O)CCO; assay: purified protein, by the assay type; format: biochemical, Escherichia coli MG1655; conditions: other: 37° C., pH 7, 0.06 mM DCIP
Description: as §1, §4, §5

Protein	Km [2] [mM]	Km [3] [mM]	other results
Escherichia coli (L)-malate dehydrogenase Ec-Mdh, wild type, SEQ ID No. 124 (Escherichia coli K-12) (protein) MKVAVLGAAGGIGQALALLLKTQLPSGSELSLYDIAPVTPGVAVDLSHIPTAVKIKGFSGEDATPALEGADVVLISAGVARKPGMDRSDLFNVNAGIVKNLVQQVAKTCPKACIGIITNPVNTTVAIAAEVLKKAGVYDKNKLFGVTTLDIIRSNTFVAELKGKQPGEVEVPVIGGHSGVTILPLLSQVPGVSFTEQEVADLTKRIQNAGTEVVEAKAGGGSATLSMGQAAARFGLSLVRALQGEQGVVECAYVEGDGQYARFFSQPLLLGKNGVEERKSIGTLSAFEQNALEGMLDTLKKDIALGEEFVNK	–	–	Km [1]: 0.56 mM
Escherichia coli malate dehydrogenase Ec-Mdh variant R81A M85Q, SEQ ID No. 158 (Escherichia coli K-12; M85Q/R81A) (protein) MKVAVLGAAGGIGQALALLLKTQLPSGSELSLYDIAPVTPGVAVDLSHIPTAVKIKGFSGEDATPALEGADVVLISAGVAAKPGQDRSDLFNVNAGIVKNLVQQVAKTCPKACIGIITNPVNTTVAIAAEVLKKAGVYDKNKLFGVTTLDIIRSNTFVAELKGKQPGEVEVPVIGGHSGVTILPLLSQVPGVSFTEQEVADLTKRIQNAGTEVVEAKAGGGSATLSMGQAAARFGLSLVRALQGEQGVVECAYVEGDGQYARFFSQPLLLGKNGVEERKSIGTLSAFEQNALEGMLDTLKKDIALGEEFVNK	2.2	29	–
Escherichia coli malate dehydrogenase Ec-Mdh variant R81A M85Q I12V, SEQ ID No. 164 (Escherichia coli K-12; I12V/M85Q/R81A) (protein) MKVAVLGAAGGVGQALALLLKTQLPSGSELSLYDIAPVTPGVAVDLSHIPTAVKIKGFSGEDATPALEGADVVLISAGVAAKPGQDRSDLFNVNAGIVKNLVQQVAKTCPKACIGIITNPVNTTVAIAAEVLKKAGVYDKNKLFGVTTLDIIRSNTFVAELKGKQPGEVEVPVIGGHSGVTILPLLSQVPGVSFTEQEVADLTKRIQNAGTEVVEAKAGGGSATLSMGQAAARFGLSLVRALQGEQGVVECAYVEGDGQYARFFSQPLLLGKNGVEERKSIGTLSAFEQNALEGMLDTLKKDIALGEEFVNK	12.5	19	–
Escherichia coli malate dehydrogenase Ec-Mdh variant R81A D86S, SEQ ID No. 170 (Escherichia coli K-12; D86S/R81A) (protein) MKVAVLGAAGGIGQALALLLKTQLPSGSELSLYDIAPVTPGVAVDLSHIPTAVKIKGFSGEDATPALEGADVVLISAGVAAKPGMSRSDLFNVNAGIVKNLVQQVAKTCPKACIGIITNPVNTTVAIAAEVLKKAGVYDKNKLFGVTTLDIIRSNTFVAELKGKQPGEVEVPVIGGHSGVTILPLLSQVPGVSFTEQEVADLTKRIQNAGTEVVEAKAGGGSATLSMGQAAARFGLSLVRALQGEQGVVECAYVEGDGQYARFFSQPLLLGKNGVEERKSIGTLSAFEQNALEGMLDTLKKDIALGEEFVNK	10.3	28	–
Escherichia coli malate dehydrogenase Ec-Mdh variant R81A, SEQ ID No. 156 (Escherichia coli K-12; R81A) (protein) MKVAVLGAAGGIGQALALLLKTQLPSGSELSLYDIAPVTPGVAVDLSHIPTAVKIKGFSGEDATPALEGADVVLISAGVAAKPGMDRSDLFNVNAGIVKNLVQQVAKTCPKACIGIITNPVNTTVAIAAEVLKKAGVYDKNKLFGVTTLDIIRSNTFVAELKGKQPGEVEVPVIGGHSGVTILPLLSQVPGVSFTEQEVADLTKRIQNAGTEVVEAKAGGGSATLSMGQAAARFGLSLVRALQGEQGVVECAYVEGDGQYARFFSQPLLLGKNGVEERKSIGTLSAFEQNALEGMLDTLKKDIALGEEFVNK	0.7	33	–
Escherichia coli malate dehydrogenase Ec-Mdh variant R81A I12V, SEQ ID No. 162 (Escherichia coli K-12; I12V/R81A) (protein) MKVAVLGAAGGVGQALALLLKTQLPSGSELSLYDIAPVTPGVAVDLSHIPTAVKIKGFSGEDATPALEGADVVLISAGVAAKPGMDRSDLFNVNAGIVKNLVQQVAKTCPKACIGIITNPVNTTVAIAAEVLKKAGVYDKNKLFGVTTLDIIRSNTFVAELKGKQPGEVEVPVIGGHSGVTILPLLSQVPGVSFTEQEVADLTKRIQNAGTEVVEAKAGGGSATLSMGQAAARFGLSLVRALQGEQGVVECAYVEGDGQYARFFSQPLLLGKNGVEERKSIGTLSAFEQNALEGMLDTLKKDIALGEEFVNK	8.5	–	–
Escherichia coli malate dehydrogenase Ec-Mdh variant R81A M85E, SEQ ID No. 160 (Escherichia coli K-12; M85E/R81A) (protein) MKVAVLGAAGGIGQALALLLKTQLPSGSELSLYDIAPVTPGVAVDLSHIPTAVKIKGFSGEDATPALEGADVVLISAGVAAKPGEDRSDLFNVNAGIVKNLVQQVAKTCPKACIGIITNPVNTTVAIAAEVLKKAGVYDKNKLFGVTTLDIIRSNTFVAELKGKQPGEVEVPVIGGHSGVTILPLLSQVPGVSFTEQEVADLTKRIQNAGTEVVEAKAGGGSATLSMGQAAARFGLSLVRALQGEQGVVECAYVEGDGQYARFFSQPLLLGKNGVEERKSIGTLSAFEQNALEGMLDTLKKDIALGEEFVNK	8.6	48	–
Escherichia coli malate dehydrogenase Ec-Mdh variant R81A M85E I12V, SEQ ID No. 166 (Escherichia coli K-12; I12V/M85E/R81A) (protein) MKVAVLGAAGGVGQALALLLKTQLPSGSELSLYDIAPVTPGVAVDLSHIPTAVKIKGFSGEDATPALEGADVVLISAGVAAKPGEDRSDLFNVNAGIVKNLVQQVAKTCPKACIGIITNPVNTTVAIAAEVLKKAGVYDKNKLFGVTTLDIIRSNTFVAELKGKQPGEVEVPVIGGHSGVTILPLLSQVPGVSFTEQEVADLTKRIQNAGTEVVEAKAGGGSATLSMGQAAARFGLSLVRALQGEQGVVECAYVEGDGQYARFFSQPLLLGKNGVEERKSIGTLSAFEQNALEGMLDTLKKDIALGEEFVNK	11.2	20	–
Lactococcus lactis (L)-lactate dehydrogenase Ll-LdhA, wild type, SEQ ID No. 120 (Lactococcus lactis subsp. lactis Il1403) (protein) MADKQRKKVILVGDGAVGSSYAFALVNQGIAQELGIVDLFKEKTQGDAEDLSHALAFTSPKKIYSADYSDASDADLVVLTSGAPQKPGETRLDLVEKNLRITKDVVTKIVASGFKGIFLVAANPVDILTYATWKFSGFPKNRVVGSGTSLDTARFRQALAEKVDVDARSIHAYIMGEHGDSEFAVWSHANVAGVKLEQWFQENDYLNEAEIVELFESVRDAAYSIIAKKGATFYGVAVALARITKAILDDEHAVLPVSVFQDGQYGVSDCYLGQPAVVGAEGVVNPIHIPLNDAEMQKMEASGAQLKAIIDEAFAKEEFASAVKN	–	–	Km [4]: 21.2 mM
Bacillus subtilis (L)-malate dehydrogenase Bs-Mdh, wild type, SEQ ID No. 126 (Bacillus subtilis subsp. subtilis str. 168) (protein, hexa-His (N); made in house; host or cells: E. coli BL21 (DE3) star) MGNTRKKVSVIGAGFTGATTAFLIAQKELADVVLVDIPQLENPTKGKALDMLEASPVQGFDAKITGTSNYEDTAGSDIVVITAGIARKPGMSRDDLVSTNEKIMRSVTQEIVKYSPDSIIVVLTNPVDAMTYAVYKESGFPKERVIGQSGVLDTARFRTFVAEELNLSVKDVTGFVLGGHGDDMVPLVRYSYAGGIPLETLIPKERIDAIVERTRKGGGEIVNLLGNGSAYYAPAASLTEMVEAILKDQRRVLPTIAYLEGEYGYEGIYLGVPTIVGGNGLEQIIELELTDYERAQLNKSVESVKNVMKVLS	–	–	Km [5]: 2.6 mM
Bacillus subtilis malate dehydrogenase Bs-Mdh variant R87C, SEQ ID No. 154 (Bacillus subtilis subsp. subtilis str. 168; R87C) (protein) MGNTRKKVSVIGAGFTGATTAFLIAQKELADVVLVDIPQLENPTKGKALDMLEASPVQGFDAKITGTSNYEDTAGSDIVVITAGIACKPGMSRDDLVSTNEKIMRSVTQEIVKYSPDSIIVVLTNPVDAMTYAVYKESGFPKERVIGQSGVLDTARFRTFVAEELNLSVKDVTGFVLGGHGDDMVPLVRYSYAGGIPLETLIPKERIDAIVERTRKGGGEIVNLLGNGSAYYAPAASLTEMVEAILKDQRRVLPTIAYLEGEYGYEGIYLGVPTIVGGNGLEQIIELELTDYERAQLNKSVESVKNVMKVLS	–	–	Km [6]: 6.8 mM; Km [7]: 5.4 mM
Escherichia coli membrane associated (L)-lactate dehydrogenase Ec-LldD, wild type, SEQ ID No. 122 (Escherichia coli K-12) (protein, hexa-His (N); made in house; host or cells: E. coli BL21 (DE3) star) MIISAASDYRAAAQRILPPFLFHYMDGGAYSEYTLRRNVEDLSEVALRQRILKNMSDLSLETTLFNEKLSMPVALAPVGLCGMYARRGEVQAAKAADAHGIPFTLSTVSVCPIEEVAPAIKRPMWFQLYVLRDRGFMRNALERAKAAGCSTLVFTVDMPTPGARYRDAHSGMSGPNAAMRRYLQAVTHPQWAWDVGLNGRPHDLGNISAYLGKPTGLEDYIGWLGNNFDPSISWKDLEWIRDFWDGPMVIKGILDPEDARDAVRFGADGIVVSNHGGRQLDGVLSSARALPAIADAVKGDIAILADSGIRNGLDVVRMIALGADTVLLGRAFLYALATAGQAGVANLLNLIEKEMKVAMTLTGAKSISEITQDSLVQGLGKELPAALAPMAKGNAA	–	–	Km [8]: 0.13 mM; Km [9]: 1.31 mM
